How the values were obtained:
[1] = target: MTTE peptide (minimal tetanus toxin epitope), biotinylated (Clostridium tetani)
[2] = target: SM083P004 (Clostridium tetani)

B1: 14GIIICII-b scFv (scFv)
scFv: QVQLQQPGAELVMPGASVNLSCKASGYTFTDYWMHWVKQRPGQGLEWIGEIDPSDNFSNLNQNFRGKATLTVDKSSRTAFLQLSSLTSEDSAVYYCAVEDYWGQGTTLTVSSGGGGSGGGGSGGGGSGGGGSDIVMTQATPSVLVTPGEAVSISCRASRSLLHSNGITYLYWFLQRPGQSPQVLIYRMSNLVSGVPDRFSGSGSGTAFTLRISRVEAEDVGVYYCMQHLEFPYTFGGGTKLEIK
Q: How did the Kd [1] turn out when B1 was run?
A: 1.8 nM

Q: And the koff [1]?
A: 0.00032 s⁻¹

Q: What about the kon [1] of the same binder?
A: 180000 M⁻¹ s⁻¹

B2: IBIIICI-b scFv (scFv)
scFv: EVRLLQSGAALVRPGASVKLSCTASGFNIKDFNIHWVKQRPEQGLEWIGRIDPENGDAEYVPKFQVRATMTTDTSSNTVYLHLSSLTSGDTAVYYCTTGSYDLDVEYWGQGTTLTVSSGGGGSGGGGSGGGGSGGGGSELQMTQSPSSLSASLGDTVTITCHASQNINVWLSWYQQRPGNIPKLLIYKASTLHTGVPSRFRGSGSGTGFTLTISSLQPEDIATYYCQQGQSYPLTFGAGTKLELK
Q: For B2, which Kd [1] is on record?
A: 0.52 nM

Q: And the koff [1]?
A: 0.00048 s⁻¹

Q: What about the kon [1] of the same binder?
A: 920000 M⁻¹ s⁻¹

B3: scFv Y-SM083-p04-D04 (scFv)
scFv: EVQLLESGGGLVQPGGSLRLSCAASGFTFSGYYMYWVRQAPGKGLEWVSYIGYSGGGTGYADSVKGRFTISRDNSKNTLYLQMNSLRAEDTAVYYCARVPFGAFDYWGQGTLVTVSSGGGGSGGGGSGGGGSDIQMTQSPSSLSASVGDRVTITCRASQSISSYLNWYQQKPGKAPKLLIYAASSLQSGVPSRFSGSGSGTDFTLTISSLQPEDFATYYCQQYYGFPYTFGQGTKLEIK
Q: Which results are given for B3?
A: Kd [2]: 3.3 nM; koff [2]: 0.00043 s⁻¹; kon [2]: 130000 M⁻¹ s⁻¹
